Measured values as given in patent US20230303719, “HUMANIZED 3E10 ANTIBODIES, VARIANTS, AND ANTIGEN BINDING FRAGMENTS THEREOF” (YALE UNIVERSITY, published 2023).

How the values were obtained:
humanized 3E10 V66 (CHO) = humanized 3E10 V66 (CHO) (synthetic construct, UniProt P01857; SEQ:1-446,SEQ:1-218); assay: BLI; 1:1 model; antibody on AHC2 sensor; ka 3.08E5, kdis 7.99E-4; settings: tags: human Fc IgG; transiently expressed in CHO; chain copies: 2 heavy + 2 light (inferred); hairpin
[1] = biological target: 3E10-D31N (chimeric, murine VH/VL); assay: BLI; 1:1 model; antibody on AHC2 sensor; ka 2.29E5, kdis 4.76E-4; settings: tags: human Fc IgG; chain copies: 2 heavy + 2 light (inferred); hairpin
[2] = biological target: humanized 3E10 V66 (HEK293) (synthetic construct, UniProt P01857; SEQ:1-446,SEQ:1-218); assay: BLI; 1:1 model; antibody on AHC2 sensor; ka 2.42E5, kdis 3.13E-4; settings: tags: human Fc IgG; transiently expressed in HEK293; chain copies: 2 heavy + 2 light (inferred); hairpin
humanized 3E10 V66 (HEK293), sequence (P01857 other isoform, or with tags, fused parts or gaps, chain 1 of 2): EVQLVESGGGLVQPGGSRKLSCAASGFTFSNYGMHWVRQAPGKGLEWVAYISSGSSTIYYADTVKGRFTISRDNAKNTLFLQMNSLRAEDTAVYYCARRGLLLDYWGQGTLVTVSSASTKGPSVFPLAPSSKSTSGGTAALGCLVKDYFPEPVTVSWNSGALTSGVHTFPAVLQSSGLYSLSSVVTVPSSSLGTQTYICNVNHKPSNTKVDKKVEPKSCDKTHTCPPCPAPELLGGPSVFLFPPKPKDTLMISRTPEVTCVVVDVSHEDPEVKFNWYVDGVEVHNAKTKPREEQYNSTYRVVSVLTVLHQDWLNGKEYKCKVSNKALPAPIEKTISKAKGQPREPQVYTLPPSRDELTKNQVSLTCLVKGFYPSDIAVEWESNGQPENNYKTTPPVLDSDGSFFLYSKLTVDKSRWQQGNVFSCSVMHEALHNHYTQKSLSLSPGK
humanized 3E10 V66 (HEK293), sequence (chain, as listed by the source, chain 2 of 2): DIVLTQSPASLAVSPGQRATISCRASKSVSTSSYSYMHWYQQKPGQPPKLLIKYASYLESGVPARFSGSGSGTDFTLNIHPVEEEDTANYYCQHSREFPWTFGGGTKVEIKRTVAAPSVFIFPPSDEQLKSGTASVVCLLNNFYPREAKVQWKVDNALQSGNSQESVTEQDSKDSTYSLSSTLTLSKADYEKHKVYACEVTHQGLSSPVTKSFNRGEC

[3] = biological target: 3E10-D31N IgG4 S228P/F234A/L235A/M252Y/S254T/T256E (synthetic construct, UniProt P01861; SEQ:1-443,SEQ:1-218); assay: BLI; 1:1 model; antibody on AHC2 sensor; RNA 62.5-500 nM; settings: tags: human IgG4 Fc; chain copies: 2 heavy + 2 light (inferred); hairpin
[4] = biological target: 3E10-D31N IgG4 S228P/F234A/L235A/H310Q (synthetic construct, UniProt P01861; SEQ:1-443,SEQ:1-218); assay: as above; settings: tags: human IgG4 Fc; chain copies: 2 heavy + 2 light (inferred); hairpin
[5] = biological target: 3E10-D31N IgG4 S228P/F234A/L235A (synthetic construct, UniProt P01861; SEQ:1-443,SEQ:1-218); assay: as above; settings: tags: human IgG4 Fc; chain copies: 2 heavy + 2 light (inferred); hairpin
[6] = biological target: 3E10-D31N IgG4 S228P/F234A/L235A/T307Q/N434A (synthetic construct, UniProt P01861; SEQ:1-443,SEQ:1-218); assay: as above; settings: tags: human IgG4 Fc; chain copies: 2 heavy + 2 light (inferred); hairpin
[7] = biological target: 3E10-D31N (chimeric, murine VH/VL); assay: as above; settings: tags: human Fc IgG; chain copies: 2 heavy + 2 light (inferred); hairpin

humanized 3E10 V66 (CHO), sequence (P01857 other isoform, or with tags, fused parts or gaps, chain 1 of 2): as the sequence (P01857 other isoform, or with tags, fused parts or gaps, chain 1 of 2) above
humanized 3E10 V66 (CHO), sequence (chain, as listed by the source, chain 2 of 2): as the sequence (chain, as listed by the source, chain 2 of 2) above

B1: 3p-hpRNA RIG-I agonist (89 nt) (ssRNA)
RNA: GGAGCAAAAGCAGGGUGACAAAGACAUAAUGGAUCCAAACACUGUGUCAAGCUUUCAGGUAGAUUGCUUUCUUUGGCAUGUCCGCAAAC
modifications: 5'-triphosphate
Binder B1 has a Kd (humanized 3E10 V66 (CHO)) of 2.6 nM, a Kd [1] of 2.08 nM and a Kd [2] of 1.3 nM. It also gave a Kd [3] of 5 nM, a Kd [4] of 6.58 nM and a Kd [5] of 3.33 nM. The Kd [6] was 12.7 nM and the Kd [7] was 10.5 nM.
